One assay deals with T1, human EGFR (Homo sapiens, UniProt P00533).
T1 construct: His
The assay is described as follows: ELISA binding to human EGFR. Here is the method:
(§1) ELISA assay: human HER2-ex-huFc, human HER3-huFc, and human EGFR-his were diluted to 2 μg/mL and 50 μL/well in a 96-well plate and incubated at 4° C. overnight. The plate was washed with 0.5×PBST, then incubated with 100 μL of a blocking buffer (PBS+3% BSA) at 37° C. for 2 h, and washed with 0.5×PBST. The 3F8 antibody was diluted with the blocking buffer in a 1:3 serial gradient, added at 50 μL/well, incubated at 37° C. for 40-50 min, and then washed with 0.5×PBST. Goat anti-mouse IgG-HRP (Southern Biotech, 1030-05) was diluted at 1:20000 with the blocking buffer, added at 50 μL/well, incubated in the dark for 30 min, and then washed with 0.5×PBST. Prior to assay, 50 μL of luminol buffer A+B was added to each well in a 1:1 mix.
(§2) The binding affinities of murine 3F8 to human HER3, HER2 and EGFR were determined by ELISA.
(§3) EC50 of murine 3F8 binding to human HER3, HER2, and EGFR was analyzed using GraphPad Prism 6.0.

In assay [1] the test system is SP2/0 wild-type cells or cells overexpressing HER2 or EGFR. In words: FACS binding of murine 3F8 to SP2/0 wild-type, HER2 or EGFR cells. More on the design: species or system human. As to the method: (§4) Cell culture: SP2/0, SP2/0-HER3, SP2/0-HER2, SP2/O-EGFR, NCI-N87, MDA-MB-468, MDA-MB-453, 7901, HT29, MCF-7, and SK-BR-3 used in the study were purchased from ATCC and cultured using the appropriate media recommended by ATCC. SP2/0-EGFR, SP2/0-HER2, and SP2/0HER3 cells stably expressing human EGFR, HER2 and HER3 were generated in house.
(§5) FACS assay: the cultured cells were digested with 0.25% trypsin-EDTA and then centrifuged at 1500 rpm for 5 min. The cell pellets were regenerated into 5×10^6 cells/mL using a PBS FACS solution containing 5% FBS and 0.2% ProClin300. 50 μL of the cell suspension was incubated with 100 μL of the primary antibody at a concentration of 1 μg/mL on ice for 1 h. The cells were washed twice with the FACS solution. The pellets were regenerated using 100 μL of a FACS solution containing goat anti-mouse IgG-PE (1:1000 dilution) and incubated on ice in the dark for 1 h. The cells were then washed twice and resuspended in 200 μL of the FACS solution.
(§6) Murine 3F8 was co-incubated with SP2/0 wild-type cells or cells overexpressing HER3, HER2 or EGFR. The binding strength was measured in a FACS instrument with a PE-anti-mouse secondary antibody.

The next assay has as its target cynomolgus monkey HER3. The assay is described as follows: ELISA binding to cynomolgus monkey HER3. As to conditions: Table 2. Here is the method: as §1
(§7) The species selectivity of murine 3F8 to human, monkey, rat and mouse HER3 was determined by ELISA.
(§8) EC50 of murine 3F8 binding to human, monkey, rat and mouse HER3 was analyzed using GraphPad Prism 6.0.

In a further assay the target is T2, human HER2 (Homo sapiens, UniProt P04626).
T2 construct: human HER2-ex-huFc; human Fc (huFc)
The assay is described as follows: ELISA binding to human HER2. Here is the method:
as §1, §2, §3

For another assay, the target named is mouse HER3 (Mus musculus, UniProt Q61526). In words: ELISA binding to mouse HER3. As to the method: as §1, §7, §8
Chain of mouse HER3 (Q61526 20-1339): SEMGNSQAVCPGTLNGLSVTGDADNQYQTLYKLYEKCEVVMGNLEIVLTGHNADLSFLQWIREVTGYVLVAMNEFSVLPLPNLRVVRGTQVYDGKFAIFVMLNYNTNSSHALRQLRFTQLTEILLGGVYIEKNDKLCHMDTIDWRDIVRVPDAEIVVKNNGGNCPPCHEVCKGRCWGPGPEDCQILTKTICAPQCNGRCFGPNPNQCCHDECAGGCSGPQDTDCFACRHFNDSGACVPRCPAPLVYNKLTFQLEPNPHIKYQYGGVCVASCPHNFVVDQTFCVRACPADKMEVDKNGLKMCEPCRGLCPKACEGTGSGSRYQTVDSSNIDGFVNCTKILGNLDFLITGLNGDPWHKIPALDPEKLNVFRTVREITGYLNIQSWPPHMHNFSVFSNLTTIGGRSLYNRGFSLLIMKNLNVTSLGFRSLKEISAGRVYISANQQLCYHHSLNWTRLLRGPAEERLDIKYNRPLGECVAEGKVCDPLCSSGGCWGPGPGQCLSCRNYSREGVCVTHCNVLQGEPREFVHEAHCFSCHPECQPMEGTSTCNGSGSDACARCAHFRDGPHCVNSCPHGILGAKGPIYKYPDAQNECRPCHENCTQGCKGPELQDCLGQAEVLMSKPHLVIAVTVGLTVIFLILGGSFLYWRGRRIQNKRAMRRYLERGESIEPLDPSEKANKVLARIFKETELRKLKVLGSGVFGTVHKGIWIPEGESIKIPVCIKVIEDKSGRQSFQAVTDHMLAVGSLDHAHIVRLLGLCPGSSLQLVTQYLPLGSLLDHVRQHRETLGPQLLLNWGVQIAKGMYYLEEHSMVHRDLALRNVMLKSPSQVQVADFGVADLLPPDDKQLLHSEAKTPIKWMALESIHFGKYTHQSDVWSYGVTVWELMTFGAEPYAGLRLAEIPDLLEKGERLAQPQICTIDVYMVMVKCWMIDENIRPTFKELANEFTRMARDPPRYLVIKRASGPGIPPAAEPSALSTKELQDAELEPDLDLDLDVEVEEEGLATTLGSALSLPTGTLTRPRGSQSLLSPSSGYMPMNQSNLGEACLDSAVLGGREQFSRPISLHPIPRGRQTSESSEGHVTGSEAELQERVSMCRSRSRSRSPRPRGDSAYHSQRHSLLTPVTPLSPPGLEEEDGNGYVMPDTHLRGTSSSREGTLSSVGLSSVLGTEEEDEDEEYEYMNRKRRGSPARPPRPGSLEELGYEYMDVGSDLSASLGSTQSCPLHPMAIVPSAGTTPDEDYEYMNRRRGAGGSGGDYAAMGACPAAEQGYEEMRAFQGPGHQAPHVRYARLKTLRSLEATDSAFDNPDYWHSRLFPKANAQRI
A further assay concerns the target T3, SP2/0-HER3 cells (Homo sapiens, UniProt P21860).
T3 construct: expressed in transfected cells; host or cells: SP2/0 (mouse myeloma) stably expressing human HER3
The assay is described as follows: FACS binding of murine 3F8 to SP2/0 cells overexpressing HER3. As to conditions: PE-anti-mouse secondary antibody. Here is the method:
as §4, §5, §6

Assay [2] concerns BT474 subcutaneous xenograft model. The assay is described as follows: Tumor growth in BT474 subcutaneous xenograft model. It is filed as in vivo, mouse. As to conditions: 25 mg/kg intravenously once every two weeks for three weeks; one-way analysis of variance p<0.05. As to the method:
In vivo efficacy study: the animals were maintained and used according to the IACUC guidelines. BALC/b nude mice and NPG mice, purchased from Charles River and SPF Biotech, respectively, were housed at 25° C. in a 12-h dark/light cycle with free access to food and drink. A patient-derived xenograft (PDX) model was generated by subcutaneous implantation of cryopreserved tissue fragments. Animals were initiated with drug treat when the tumor size reached 100-200 mm^3 and were euthanized when the tumor size was 1000 mm^3. The health condition was monitored daily. Tumor size and body weight were monitored and recorded every 3 days.
The anti-HER3 antibody was effective in inhibiting tumor growth in the BT474 subcutaneous xenograft model. The anti-HER3 antibody 3F8, 3D4, or 3F8+3D4 combination was injected intravenously at 25 mg/kg once every two weeks for three weeks. Tumor size was monitored every 3-4 days. Both 3F8 and 3D4 are anti-HER3 antibodies. 3F8 is a murine antibody.

The test system of assay [3] is cells at different HER3 surface levels. In words: Internalization of murine 3F8 by cells at different HER3 surface levels. The class given is cell-based. Here is the method:
Murine 3F8 was rapidly taken up by cells at different HER3 surface levels. The cells at different HER3 surface levels were incubated with murine 3F8 on ice (control) or incubated at 37° C. for 1 or 4 h. The internalization fraction was determined by subtracting the 37° C. incubated cell surface signal from the ice incubated control.

For the next assay, the target named is rat HER3 (Rattus norvegicus, UniProt Q62799). In words: ELISA binding to rat HER3. As to the method: as §1, §7, §8
Chain of rat HER3 (Q62799 20-1339): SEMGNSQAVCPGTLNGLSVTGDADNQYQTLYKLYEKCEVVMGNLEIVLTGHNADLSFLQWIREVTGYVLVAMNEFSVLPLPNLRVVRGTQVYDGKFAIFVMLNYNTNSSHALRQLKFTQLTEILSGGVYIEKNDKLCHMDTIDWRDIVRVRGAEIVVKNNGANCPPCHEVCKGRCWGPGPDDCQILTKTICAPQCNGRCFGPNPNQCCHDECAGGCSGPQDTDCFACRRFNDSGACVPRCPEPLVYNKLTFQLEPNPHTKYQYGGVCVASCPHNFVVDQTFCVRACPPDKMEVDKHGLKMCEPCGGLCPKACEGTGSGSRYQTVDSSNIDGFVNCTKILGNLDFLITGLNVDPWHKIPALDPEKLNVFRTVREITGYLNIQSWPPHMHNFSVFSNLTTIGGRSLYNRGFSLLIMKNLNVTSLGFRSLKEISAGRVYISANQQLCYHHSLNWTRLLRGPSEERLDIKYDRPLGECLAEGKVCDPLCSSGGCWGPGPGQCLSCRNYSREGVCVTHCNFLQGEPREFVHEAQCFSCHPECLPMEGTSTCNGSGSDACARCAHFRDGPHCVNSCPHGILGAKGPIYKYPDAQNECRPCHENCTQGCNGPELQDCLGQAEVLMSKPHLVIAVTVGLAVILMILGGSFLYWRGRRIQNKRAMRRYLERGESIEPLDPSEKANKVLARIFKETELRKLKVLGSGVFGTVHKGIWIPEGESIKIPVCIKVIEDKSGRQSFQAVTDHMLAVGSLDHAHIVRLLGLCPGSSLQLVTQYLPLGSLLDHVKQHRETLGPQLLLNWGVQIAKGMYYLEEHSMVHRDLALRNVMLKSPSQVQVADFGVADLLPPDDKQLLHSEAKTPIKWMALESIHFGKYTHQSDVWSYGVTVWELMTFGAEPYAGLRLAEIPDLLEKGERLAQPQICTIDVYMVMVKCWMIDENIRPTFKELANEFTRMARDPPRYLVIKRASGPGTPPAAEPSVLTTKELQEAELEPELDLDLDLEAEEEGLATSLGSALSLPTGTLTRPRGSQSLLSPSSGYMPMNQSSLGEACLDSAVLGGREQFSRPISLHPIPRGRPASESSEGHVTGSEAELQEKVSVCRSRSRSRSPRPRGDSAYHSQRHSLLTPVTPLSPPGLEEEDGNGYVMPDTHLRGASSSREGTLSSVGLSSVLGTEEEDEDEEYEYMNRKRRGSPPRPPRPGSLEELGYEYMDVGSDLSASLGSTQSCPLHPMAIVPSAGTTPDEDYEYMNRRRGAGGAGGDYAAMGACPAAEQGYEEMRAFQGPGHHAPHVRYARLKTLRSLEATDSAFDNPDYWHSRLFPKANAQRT
Assay [4] has as its system NRG1-induced HER3 phosphorylation. The assay is described as follows: NRG1-induced HER3 phosphorylation, western blot in NCI-N87, MDA-MB-468 and MDA-MB-453. It is filed as cell-based. As to the method: Western blot assay: the protein separated by SDS-PAGE was transferred to a nitrocellulose membrane for Western blot. The primary antibodies used were as follows: anti-HER2 (cell signaling, Catl #: 2165S), anti-HER3 (cell signaling, Catl #: 12708), anti-p-HER3 (cell signaling, Catl #: 4791), and anti-β-actin (cell signal transduction, Catl #: 4967).
HER3 phosphorylation induced by NRG1: the cells were cultured in a 6-well plate and used for an experiment when the confluency reached 80%. On the day of the experiment, the cells were washed twice with PBS, incubated for 6 h in a serum-free medium, and then induced overnight with 10 μg/mL of the antibody. To induce HER3 phosphorylation, NRG1 was added to a working concentration of 100 ng/mL 30 min before the cells were collected for Western blot.
Murine 3F8 blocked NRG1-induced HER3 phosphorylation. NCI-N87, MDA-MB-468 and MDA-MB-453 were treated with NRG1, the HER3 ligand, to induce downstream phosphorylation of HER3.
The effect of murine 3F8 in inhibiting NRG1-induced p-HER3 was determined by western blot.

Assay [5] has as its target T4, HER3 (Homo sapiens, UniProt P21860).
T4 construct: human Fc (huFc)
In words: ELISA binding to human HER3. Here is the method:
as §1, §2, §3, §7, §8

Assay [6] deals with T4, HER3. The assay is described as follows: ELISA binding affinity after repeated freeze-thaw. As to conditions: 0 freeze-thaw cycles. Here is the method:
as §1
Antibody stability test: the purified antibody at 5 mg/mL was stored at 4° C. as regular practice, incubated at 40° C. for 7 days and 14 days for heat stability evaluation, transferred to a glycine solution at pH 3.5 for regeneration, and stored for 2, 4 and 6 h for acid stability evaluation, or subjected to repeated freeze-thaw treatments for 4 or 6 cycles for freeze-thaw stability evaluation. Aggregation was measured by SEC-HPLC, and binding affinity was determined by ELISA.
Three clones of hu3F8 were freeze-thawed for 3 or 5 cycles, and then subjected to ELISA to measure the binding affinities. The chimeric antibody was subjected to parallel assay.

The target in a further assay is T5, His-HER3 (Homo sapiens, UniProt P21860).
T5 construct: His
In words: Binding kinetics by Biacore (SPR). As to conditions: antibody as ligand, analyte His-HER3, Biacore T200. As to the method: Affinity assay by surface plasmon resonance (SPR): antibody kinetics and affinity were determined using Biacore T200. Briefly, the recombinant human HER3 antibody was immobilized on a protein A chip (GE, Cat. 29-1275-5). The antigen concentration, from 50 nM to a final concentration of 0.78125 nM, was generated by 2-fold serial dilution, and affinity and kinetics were determined through the chip.
The binding affinity of humanized 3F8 (hu3F8) and chimeric 3F8. Binding kinetics of 3 humanized 3F8 clones and chimeric 3F8 were determined by Biacore. Three humanized 3F8 clones (clone 1, clone 2 and clone 3) had different heavy chains and one identical light chain. Clone 1, clone 2, and clone 3 corresponded to hu3F8-1, hu3F8-2, and hu3F8-3, respectively.
All data listed in Table 6 were processed using Biacore T200 evaluation software version 3.1.

Assay [7] has as its target T4, HER3. The assay is described as follows: ELISA binding affinity after incubation at 40° C. (heat stress). As to conditions: day 0. As to the method:
as §1, with “Prior to assay, 50 μL of luminol buffer A+B was added to each well in a 1:1 mix.” left out
Antibody stability test: the purified antibody at 5 mg/mL was stored at 4° C. as regular practice, incubated at 40° C. for 7 days and 14 days for heat stability evaluation, transferred to a glycine solution at pH 3.5 for regeneration, and stored for 2, 4 and 6 h for acid stability evaluation, or subjected to repeated freeze-thaw treatments for 4 or 6 cycles for freeze-thaw stability evaluation. Aggregation was measured by SEC-HPLC, and binding affinity was determined by ELISA. […]
EC50 assay of the three clones of hu3F8 incubated at 40° C. for different times. The three humanized 3F8 antibody clones were incubated in normal saline at 40° C. for 7 or 14 days, and the binding affinities after heat stress test were determined by ELISA. […]

A value given as a limit tells only on which side of the number the result lay.

B1: murine 3F8: murine anti-HER3 antibody 3F8 from hybridoma; VL SEQ ID NO: 15, VH SEQ ID NO: 16 (antibody, V domains shown)
VH: DVQLQESGPGLVKPSQSLSLTCSVTGYSITSAYYWNWIRQFPGDKLEWMGYISYDGRNNFNPSLKNRISITRDTSKNQFFLKLNSVTSGDTATYYCARDGDYDYFDYWGQGTTLTVSS
VL: DIQMTQTTSSLSASLGDRVTISCRASQDISNYLNWYQQKPDGTFKLLIYYTSILHSGVPSRFSGSGSGTDYSLTISNLEQEDIATYFCQQGDTLPPTFGAGTKLELK
Regarding B1, the “recognition of human EGFR” value with human EGFR was “did not recognize”. Besides, the “binding to other cells” value in assay [1] was “did not bind”. Further, on cynomolgus monkey HER3, the “EC50 (ng/mL) Cynomolgus monkey HER3” value was 27.825 ng/mL. Also, the “recognition of human HER2” value in the assay with human HER2 is listed as “did not recognize”. Moreover, in the assay with mouse HER3, the “recognition of mouse HER3” value is listed as “did not recognize”. For the same molecule, the “binding to SP2/0-HER3 cells” value with SP2/0-HER3 cells is listed as “specifically bound”. Moreover, the tumor growth entry in [2] is recorded as “significantly inhibited the tumor growth”. For the same molecule, in assay [3] (37° C.), the “time within which most was taken up” value is listed as ≤ 1 h. For the same molecule, the “internalization into the cell” value in assay [3] (37° C. for 1 or 4 h vs ice control) is on record as “rapidly internalized”. The “recognition of rat HER3” value with rat HER3 is listed as “did not recognize”. Moreover, in assay [4], the HER2 protein level entry is “no effect” and the “total HER3 protein level” value is “no effect”. In assay [4] (NRG1 100 ng/mL, antibody 10 μg/mL), the “phosphorylation level of HER3 protein” value is listed as “reduced the phosphorylation level”. The “recognition of human HER3” value with HER3 [5] (ELISA) is listed as “only recognized HER3”. In the assay with HER3 [5] (Table 1), the “EC50 (ng/mL) huHER3” value was 16.50 ng/mL and the “HillSlope huHER3” value was 1.04. Further, in the assay with HER3 [5] (Table 2), the “EC50 (ng/mL) Human HER3” value is 24.525 ng/mL and the “HillSlope Human HER3” value is given as 1.015.

B2: Chimeric: murine-human chimeric 3F8 antibody with human IgG1 and Igκ constant regions (antibody, V domains shown)
VH: B1 VH
VL: B1 VL
Consider B2, for which, in the assay with HER3 [6], the “EC50 after freeze-thaw stress” value is 0.04706 µg/mL. Moreover, in the assay with His-HER3, the “ka” value came out at 628000 M⁻¹ s⁻¹ and the “kd” value amounted to 0.000391 s⁻¹. Also, in the assay with HER3 [7], the “EC50 after incubation at 40° C.” value amounted to 0.04737 µg/mL.

(Values after patent publication US20250295802A1, “HER3 ANTIBODY-DRUG CONJUGATE AND USE THEREOF” (DUALITY BIOLOGICS (SUZHOU) CO., LTD., priority 2022, published 2025).)
